The assay concerns the target FcRn. The assay is described as follows: SPR (BIAcore) at pH 6.0.

Chain of FcRn (P55899 24-297, chain 1 of 2): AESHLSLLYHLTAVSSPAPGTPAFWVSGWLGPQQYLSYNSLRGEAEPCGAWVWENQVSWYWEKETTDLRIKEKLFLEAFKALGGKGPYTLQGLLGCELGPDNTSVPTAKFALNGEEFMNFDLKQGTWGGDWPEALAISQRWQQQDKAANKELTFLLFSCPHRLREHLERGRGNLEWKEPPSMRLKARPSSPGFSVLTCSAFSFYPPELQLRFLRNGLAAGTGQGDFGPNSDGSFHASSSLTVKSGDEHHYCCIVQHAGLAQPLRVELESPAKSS
Chain of FcRn (P61769 21-119, chain 2 of 2, further chain): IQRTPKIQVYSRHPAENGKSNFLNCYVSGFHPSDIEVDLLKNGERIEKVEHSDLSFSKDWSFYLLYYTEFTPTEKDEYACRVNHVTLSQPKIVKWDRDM

As a reminder, the Kd is a measure of binding affinity in units of concentration. On to Non-specific IgG1 (antibody), for which the Kd stood at 1.64 µM.

The substance Non-specific IgG4 (antibody) showed a Kd of 3.64 µM.

For the origin of these results see patent publication US20240417458A1.
